Results from US20070237759A1.

Experiments:
[1] = molecular target: human PAR-2 (proteinase activated receptor-2) (human) (UniProt P55085); assay: cell-based or functional assay
[2] = molecular target: PAR-2 expressed on cells, species not stated (Homo sapiens (Human)) (UniProt P55085); assay: cell-based or functional assay

IC50 HCT-116, FLIPR Ca2+ mobilization [1]: > 2000 nM
IC50 KNRK, FLIPR Ca2+ mobilization [2]: > 2000 nM
Substance: SAM11 monoclonal antibody to PAR-2
